# B1: 1----: recombinant β2GPI protein with domain 1 only (SEQ ID NO:4 region), His6 tail (protein)
# chain: GRTCPKPDDLPFSTVVPLKTFYEPGEEITYSCKPGYVSRGGMRKFICPLTGLWPINTLKCTPRVGHHHHHH
# System: antiphospholipid antibody in plasma from patient 6501
# Assay: Competitive antibody binding ELISA with patient plasma on β2GPI coated plates
# Set-up: species or system human
# Conditions: plasma patient 6501, 1:200
# Procedure: Nunc Maxisorp microplates (Nalge Nunc International, Denmark) were coated with 100 μL/well of β2GPI at 2.5 μg/mL in PBS, incubated for 2 hours at room temperature, and blocked for 2 hours at room temperature with 250 μl/well of 2% nonfat milk with […] (Sigma Chemical Co.). […] After incubation for one hour at room temperature the plates were washed 5× with TBS. To each well was added 100 μL of alkaline phosphatase-conjugated anti-human IgG, gamma chain specific (Zymed) diluted 1:1000 in 2% nonfat milk with 0.4% Tween-80. After one hour at room temperature the plates were washed 5× with TBS. To each well was added 100 μl PPMP chromogenic substrate solution for color development at room temperature. Optical absorbance per well was determined at A550nm in a commercial microplate reader (Bio-Tek Instruments EL3 11).
molecule,measurement,value
B1,competition for antiphospholipid antibody binding to β2GPI,Competitive binding is also exhibited

# — US6858210B1, “Therapeutic and diagnostic domain 1 β2GPI polypeptides and methods of using same” (La Jolla Pharmaceutical Co., priority 1998, dated 2005)
